Measured values: patent US10464978B2, “Peptides and combination of peptides for use in immunotherapy against ovarian cancer and other cancers” (immatics biotechnologies GmbH, priority 2015, dated 2019)

Biological target: HLA-A*02:01 (Homo sapiens, UniProt P04439, D140Y/D185E/D98H/E176V/E277Q/G131W/G231S/I119V/I121R/I166T/I218V/L300P/L318F/N151K/N90K/P208A/P217A/Q86G/Q94H/R138H/R169H/T345S)
Experiment: MHC binding assay: UV-ligand exchange with beta2m ELISA (peptide exchange yield)
Settings: binding to HLA-A*02:01
Outline: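 Peptide-MHC complexes formed by UV-ligand exchange, a UV-cleavable peptide being replaced by the candidate peptide. Exchange products diluted 100-fold, captured on streptavidin-coated plates for 1h at 37° C, then detected with 2 ug/ml HRP anti-β2m (1h, 37° C) and TMB, absorbance 450 nm; value is exchange yield.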

Substance	Peptide exchange (MHC class I binding score, peptide exchange yield)
544 (LLWDVPAPSL; listed as Homo sapiens) [compound 544]	“+++” (≥50 = +++)
545 (LLADLLHNV; listed as Homo sapiens) [compound 545]	“+++” (≥50 = +++)
546 (VMIAGKVAVV; listed as Homo sapiens) [compound 546]	“+++” (≥50 = +++)
547 (TLDITPHTV; listed as Homo sapiens) [compound 547]	“+++” (≥50 = +++)
548 (ALWENPESGEL; listed as Homo sapiens) [compound 548]	“++” (≥20% = ++)
549 (AMLENASDIKL; listed as Homo sapiens) [compound 549]	“+++” (≥50 = +++)
550 (FLYDEIEAEVNL; listed as Homo sapiens) [compound 550]	“+++” (≥50 = +++)
551 (KLYESLLPFA; listed as Homo sapiens) [compound 551]	“+++” (≥50 = +++)
552 (GLLDLPFRVGV; listed as Homo sapiens) [compound 552]	“++++” (≥75% = ++++)
553 (SLLNQDLHWSL; listed as Homo sapiens) [compound 553]	“++++” (≥75% = ++++)
554 (LLMPSSEDLLL; listed as Homo sapiens) [compound 554]	“+++” (≥50 = +++)
555 (YVLEGLKSV; listed as Homo sapiens) [compound 555]	“+++” (≥50 = +++)
556 (FLTDLEDLTL; listed as Homo sapiens) [compound 556]	“+++” (≥50 = +++)
557 (KLYDDMIRL; listed as Homo sapiens) [compound 557]	“+++” (≥50 = +++)
558 (GLLENIPRV; listed as Homo sapiens) [compound 558]	“+++” (≥50 = +++)
559 (VTVPPGPSL; listed as Homo sapiens) [compound 559]	“++” (≥20% = ++)
560 (ALWDIETGQQTTT; listed as Homo sapiens) [compound 560]	“+++” (≥50 = +++)
561 (YLQLTQSEL; listed as Homo sapiens) [compound 561]	“+++” (≥50 = +++)
562 (YLEELPEKLKL; listed as Homo sapiens) [compound 562]	“+++” (≥50 = +++)
563 (WLLPYNGVTV; listed as Homo sapiens) [compound 563]	“+++” (≥50 = +++)
564 (TVTNAVVTV; listed as Homo sapiens) [compound 564]	“+++” (≥50 = +++)
565 (ALQETPTSV; listed as Homo sapiens) [compound 565]	“++” (≥20% = ++)
566 (VIADGGIQNV; listed as Homo sapiens) [compound 566]	“++” (≥20% = ++)
567 (SLLPLDDIVRV; listed as Homo sapiens) [compound 567]	“+++” (≥50 = +++)
568 (TLYDIAHTPGV; listed as Homo sapiens) [compound 568]	“++++” (≥75% = ++++)
569 (KLVDRTWTL; listed as Homo sapiens) [compound 569]	“+++” (≥50 = +++)
570 (ALANQIPTV; listed as Homo sapiens) [compound 570]	“++” (≥20% = ++)

Other lines, results leading:

Peptide exchange (MHC class I binding score, peptide exchange yield)	Substance
“+++” (≥50 = +++)	571 (LLLTTIPQI; listed as Homo sapiens) [compound 571]
“+++” (≥50 = +++)	572 (ALADLIEKELSV; listed as Homo sapiens) [compound 572]
“+++” (≥50 = +++)	573 (ILVANAIVGV; listed as Homo sapiens) [compound 573]
“++” (≥20% = ++)	574 (YLLQEPPRTV; listed as Homo sapiens) [compound 574]
“+++” (≥50 = +++)	575 (YLISQVEGHQV; listed as Homo sapiens) [compound 575]
“++++” (≥75% = ++++)	576 (ILLNNSGQIKL; listed as Homo sapiens) [compound 576]
“+++” (≥50 = +++)	577 (VMFEDGVLMRL; listed as Homo sapiens) [compound 577]
“+++” (≥50 = +++)	578 (FLDPGGPMMKL; listed as Homo sapiens) [compound 578]
“++” (≥20% = ++)	579 (NLMEMVAQL; listed as Homo sapiens) [compound 579]
“++” (≥20% = ++)	580 (LLMENAERV; listed as Homo sapiens) [compound 580]
“+++” (≥50 = +++)	582 (TLCDVILMV; listed as Homo sapiens) [compound 582]
“+++” (≥50 = +++)	583 (ILANDGVLLAA; listed as Homo sapiens) [compound 583]
“+++” (≥50 = +++)	584 (ALAEVAAMENV; listed as Homo sapiens) [compound 584]
“++++” (≥75% = ++++)	585 (ALWDLAADKQTL; listed as Homo sapiens) [compound 585]
“+++” (≥50 = +++)	586 (KLKPGDLVGV; listed as Homo sapiens) [compound 586]
“+++” (≥50 = +++)	587 (VMNDRLYAI; listed as Homo sapiens) [compound 587]
“+++” (≥50 = +++)	588 (SLLPLSHLV; listed as Homo sapiens) [compound 588]
“+++” (≥50 = +++)	589 (KLYPQLPAEI; listed as Homo sapiens) [compound 589]
“++” (≥20% = ++)	590 (SLIEKLWQT; listed as Homo sapiens) [compound 590]
“+++” (≥50 = +++)	591 (SMAELDIKL; listed as Homo sapiens) [compound 591]

Peptide exchange (MHC class I binding score, peptide exchange yield)	Substance
“+++” (≥50 = +++)	592 (RLLSAAENFL; listed as Homo sapiens) [compound 592]
“+++” (≥50 = +++)	593 (GLPRFGIEMV; listed as Homo sapiens) [compound 593]
“+++” (≥50 = +++)	594 (IMLKGDNITL; listed as Homo sapiens) [compound 594]
“+++” (≥50 = +++)	595 (VLLSIYPRV; listed as Homo sapiens) [compound 595]
“+++” (≥50 = +++)	596 (ALLDQTKTLAESAL; listed as Homo sapiens) [compound 596]
“+++” (≥50 = +++)	597 (KLLEGQVIQL; listed as Homo sapiens) [compound 597]
“+++” (≥50 = +++)	598 (FLFPHSVLV; listed as Homo sapiens) [compound 598]
“+++” (≥50 = +++)	599 (YLLNDASLISV; listed as Homo sapiens) [compound 599]
“+++” (≥50 = +++)	600 (ALAAPDIVPAL; listed as Homo sapiens) [compound 600]
“+++” (≥50 = +++)	601 (SAFPFPVTV; listed as Homo sapiens) [compound 601]
“++++” (≥75% = ++++)	602 (YLLEQIKLIEV; listed as Homo sapiens) [compound 602]
“++” (≥20% = ++)	603 (FLIEPEHVNTV; listed as Homo sapiens) [compound 603]
“+++” (≥50 = +++)	604 (SILDRDDIFV; listed as Homo sapiens) [compound 604]
“+++” (≥50 = +++)	605 (KLYEAVPQL; listed as Homo sapiens) [compound 605]
“+++” (≥50 = +++)	606 (ALWETEVYI; listed as Homo sapiens) [compound 606]
“+++” (≥50 = +++)	607 (RLYSGISGLEL; listed as Homo sapiens) [compound 607]
“+++” (≥50 = +++)	608 (SLLSVSHAL; listed as Homo sapiens) [compound 608]
“+++” (≥50 = +++)	609 (ALWKQLLEL; listed as Homo sapiens) [compound 609]
“+++” (≥50 = +++)	610 (LLAPTPYIIGV; listed as Homo sapiens) [compound 610]
